Data taken from patent US20240094221A1, “METHOD FOR PREDICTING THE FERTILITY POTENTIAL OF A FEMALE SUBJECT” (Rigshospitalet, priority 2020, published 2024).
“Also recorded” adds a separate entry of the source.

Test system: female C57BL/6 mice
Assay: In vivo mice fertility study with RANKL inducer PTH
Conditions: vs vehicle
Source text: Twelve (12) female C57BL/6 mice will be allocated to two treatment groups (n=6, n=6) and administered with test article according to table 1. On study day 7, all females of each treatment group+3 male C57BL/6 mice will be allocated to the fertility study. In the fertility study pairs of 2 females will be housed with 1 male for a period of 5 days. During the 5 days all females are observed daily for vaginal plugs at least once per day. Administration of test articles will continue according to table 1 during the fertility study (days 7 to 11). Presence of vaginal plug, apparent pregnancy, and litter size will be recorded for each female. Females and litter will be terminated at the end of the fertility study and the weight of the pups will be determined.
Administration of test article i.p. (group 1) or vehicle i.p. (group 2) will be conducted 2 times a week for a period of 12 days. • Gr.1: 6 mice, i.p. dosing 2 times weekly for 12 days • Gr.2: 6 mice, i.p. dosing 2 times weekly for 12 days
One blood sample will be harvested on study day 12 from all female mice in the study. The blood samples will be drawn by sublingual vein puncture.
Termination: • female mice from the fertility study, will be terminated on nominal study day 12. Twelwe (12) mice will be euthanized after giving birth to litters

B1: PTH: Parathyroidea hormone; well-characterized RANKL inducer (protein, UniProt P01270 32-115, looked up)
Parathyroid hormone: SVSEIQLMHNLGKHLNSMERVEWLRKKLQDVHNFVALGAPLAPRDAGSQRPRKKEDNVLVESHEKSLGEADKADVNVLTKAKSQ
modifications: Parathyroid hormone
notes: Parathyroidea hormone; well-characterized RANKL inducer
For B1, the pregnancy rate (PTH 5 μg/kg i.p., females paired with WT males, FIG. 14A) was “increased; also recorded: doubled”, the number of pups (PTH 5 μg/kg i.p., females paired with WT males, FIG. 14B) was “increased” and the “number of pups per female” value (PTH 5 μg/kg i.p., females paired with WT males, FIG. 14C) was “increased”. The ovary weight (short-term PTH 5 μg/kg i.p., healthy female mice, p<0.05, data not shown) was “small but significant effect”.
